Source: US20040141964A1 (GlaxoSmithKline, published 2004)
Substitutions are numbered along the chain they refer to.

T1: human IL-18 (human, UniProt Q14116 37-193)
T1 construct: Injected in solution over captured mAb in the BIAcore assays; also called human interleukin-18; recombinant IL-18
T1 sequence (looked up): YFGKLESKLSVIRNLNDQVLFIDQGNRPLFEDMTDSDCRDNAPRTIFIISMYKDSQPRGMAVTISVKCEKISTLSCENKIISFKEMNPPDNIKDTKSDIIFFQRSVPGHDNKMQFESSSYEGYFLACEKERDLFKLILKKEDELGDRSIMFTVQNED

B1: rat monoclonal antibody 2C10 (antibody, IgG1, V domains shown)
VH: EVQLQQSGAELVRPGTSVKLSCKVSGEISTGYYFHFVRRRPGQGLEWIGRIDPEDDSTKYAERFKDRATLTAQTSSNTAYLNLSSLTSEDTATYFCTTWRIYRDSSGRPFYVMDAWGQGASVTVSS
VL: DIQMTQSPASLSASLGETVSIECLASEDIYTYLTWYQQKPGKSPQLLIYGANKLQDGVPSRFSGSGSGTQYSLKISGIQPEDEGDYFCLQGSKFPLTFGSGTKLEIKR
notes: Mab purified from a rat hybridoma, isotype IgG1 kappa; also called mAb 2C10; 2C10 (rat)
B2: rat monoclonal antibody 14B7 (antibody, IgG1, V domains shown)
VH: EVQLQQSGAELVRPGTSVKFSCKVSGDTPTTYYVHFVRQRPGQGLEWIGRIDPEDTSTKYAEKFRNKATFTADPSSNTAYLNLSSLTPEDTATYFCTIMRYHSTYRVYVMDFWGQGTAVTVS
VL: B1 VL with T31S, T34A, G50A, A51T, N52K, K53R, G77D, I78M, G91N, L96V
notes: Mab purified from a rat hybridoma, isotype IgG1 kappa; also called mAb 14B7; 14B7 (rat)
B3: murine monoclonal antibody 13G9 (antibody, IgG1, V domains shown)
VH: QVTLKESGPGILKPSQTLSLTCSFSGFSLSTSGMGIAWVRQPSGKGLEWLADIWWDDNKYYNPSLESQLTISKDTSRNQVFLTITSVDTADSATYYCARHHYDGSSLLPMDYWGQGTSVTVSS
VL: DVVMTQTPLSLPVSLGDQASISCRSSQSLVHSNGNTYLHWYLQKPGQSPKLLIYKVSNRFSGVPDRFSGSGSGTDFTLKISRVEAEDLGVYFCSQSTHVPPYTFGGGTKLEIKR
notes: Mab purified from a mouse hybridoma, isotype IgG1 kappa; also called mAb 13G9; 13G9 (mouse)

Legend:
human IL-18 [1] = target: T1, human IL-18; experiment: BIAcore optical biosensor, 25 C; mAb captured on anti-rat IgG Fc surface, IL-18 injected
Protocol: (§1) Kinetic data was evaluated using relationships described previously (Karlsson et al, J. Immunol. Meth., 145:229-240 (1991) and which is incorporated by reference in its entirely. The mAb (diluted in HBS buffer, 10 mM HEPES, 150 mM NaCl, 0.01% Tween-20. pH 7.4) was injected over a rabbit anti-mouse IgG Fc or goat anti-rat IgG Fc surface, followed by buffer flow and the RU was recorded. IL-18 (diluted in HBS buffer) was then injected for 180 seconds followed by a buffer flow for 500 seconds and the RU was recorded. The sensor chip surface was regenerated by an injection of 0.1 M phosphoric acid.

human IL-18 [2] = target: T1, human IL-18; experiment: cell-based or functional assay
human IL-18 [3] = target: T1, human IL-18; experiment: BIAcore optical biosensor, 25 C; mAb captured on anti-mouse IgG Fc surface, IL-18 injected
Protocol: as §1

Binder | Kd (human IL-18 [1]) [nM] | Neutralisation IC50 (human IL-18 [2]) [nM] | Kd (human IL-18 [3]) [nM]
B1 | 0.039 | 0.1 | 
B2 | 0.15 | 0.2 | 
B3 |  | 3 | 12
